Source: US20130064825A1

What was measured:
[1] = target: cynomolgus monkey PCSK9, V5-6xHIS tagged (cynomolgus monkey); assay: KinExA solution equilibrium, PCSK9-coated beads
[2] = target: cynomolgus monkey PCSK9, V5-6xHIS tagged (cynomolgus monkey); assay: SPR (Biacore 2000), antibody amine-coupled on CM5 chip, PCSK9 injected, pH 7.4

## 31H4, anti-PCSK9 huIgG4 (antibody)
[1]
  Kd: 0.002 nM
[2]
  Kd: 0.19 nM
